Data on 1 substance can be found in patent US20160051695A1.

The target in assay [1] is human HER2 (ErbB2), human epidermal growth factor receptor 2 protein (human) (UniProt P04626). Nature of the assay: flow cytometry on SKOV-3 cells, background without primary antibody. A general note: In flow cytometry, cells or beads pass a laser one at a time.
The target of assay [2] is Jurkat cells (human T leukemia cells; do not express human HER2). Briefly: flow cytometry on HER2-negative Jurkat cells, background without primary antibody.
Assay [3] deals with human HER2 (ErbB2), human epidermal growth factor receptor 2 protein (human) (UniProt P04626). Nature of the assay: flow cytometry on JIMT-1 cells, background without primary antibody.

Take “goat F(ab')2-anti-human IgG (H+L)-RPE (Southern Biotech, Cat. No. 2043-09)”: the MFI turned out to be 8 in assay [1], 9 in assay [2] and 3.29 in assay [3].
